# Assay: soluble on expression in E. coli; label from the status in PepcDB or PDB records
row,Sequence,soluble on expression in E. coli
1,MGSDKIHHHHHHDSLTESSSNTFWQTPDDALMALASCYDALQSNQLYNSDQYSLGPLYMDCISDNGGHFNWSGWMEGYDMAMGIHTPSSSIIGSYWKDCYEVISRCNVLIANIDRVDMDASQKAIYQAEAKTIRALMYINLTMTYQDVPFLTAPLTIDEAECEKTDRAAIVAHVMTDLQDAAEVLPQNASSRGHITKGAALSLLGRVALYNEKWDDAIAAYKQVQGLGYSLDPSYAKLFTQSGETSPEIIFAVRYEGPGMSEGAAFNAHWNTPLEAMNGTIDLADAYYCKDGKPTTDTKIAELNGGGGLDVSKPNPAHFENRDPRLYSTLFVPGMLWNGKGGIDTSASNPYANVYGGAAASLSTVYVYKYFDPTDTSNSWDNGQDFYVVRYAEVLLSLAEAMVQKGGYVYSDVTALVNEVRQRADVNMPTVEEVEGTSLSKDELLEVIKHERRVELAFEGLRLFDLYRWKELDKAVANIENERTMYGLAYEARKFNGERDYVWPLPTAELDTNKKLVQHDLWK,not soluble
2,MMSQQFNVAIFGATGAVGETMLEVLQEREFPVDELFLLASERSEGKTYRFNGKTVRVQNVEEFDWSQVHIALFSAGGELSAKWAPIAAEAGVVVIDNTSHFRYDYDIPLVVPEVNPEAIAEFRNRNIIANPNCSTIQMLVALKPIYDAVGIERINVTTYQSVSGAGKAGIDELAGQTAKLLNGYPAETNTFSQQIAFNCIPQIDQFMDNGYTKEEMKMVWETQKIFNDPSIMVNPTCVRVPVFYGHAEAVHVETRAPIDAEQVMDMLEQTDGIELFRGADFPTQVRDAGGKDHVLVGRVRNDISHHSGINLWVVADNVRKGAATNAVQIAELLVRDYF,not soluble
3,MSLGYRVGNSDSTSLLSAFAPPERAKKKSKEKRPLQAARFLSLLYPKTDPHSAVQDPSLVHEEHQTRLAYLQDRLCSTGDILKNTRTLETIAAYKQAVKEFVQYAIKHNYTTESKSSIRIDRGTGMPDTVIFTKIKVIDQKLASFVRELMSHQVDQLTVLQKTEEIYGMLVDLLIEGHHHHHH,soluble
4,MGSDKIHHHHHHMPLSSVSRPSTQIQAQSTGKIFIIGLPRTGTTSVCVALLEQGLKVAHQGFTQQSFYQADAIADAPVFSDFKQLDGLFPGAKFVYLSRDIAPWIISMQMLLGRMLIHLDEHTGRFHPIMKRSFNHSFKLNLVTNPFDEVHLKQCYLEHQQTVEEYFTGRNDLLKININQVGSLNRLLEFIELAPQDLASSIKSAPLNFPHLNIGRNVASWDEYKHPNKVSANLSGPNKRKFFDYTLS,not soluble
5,MKLTLKNLSMAIMMSTIVMGSSAMAADSNEKIVIAHRGASGYLPEHTLPAKAMAYAQGADYLEQDLVMTKDDNLVVLHDHYLDRVTDVADRFPDRARKDGRYYAIDFTLDEIKSLKFTEGFDIENGKKVQTYPGRFPMGKSDFRVHTFEEEIEFVQGLNHSTGKNIGIYPEIKAPWFHHQEGKDIAAKTLEVLKKYGYTGKDDKVYLQCFDADELKRIKNELEPKMGMELNLVQLIAYTDWNETQQKQPDGSWVNYNYDWMFKPGAMKQVAEYADGIGPDYHMLIEETSQPGNIKLTGMVQDAQQNKLVVHPYTVRSDKLPEYTPDVNQLYDALYNKAGVNGLFTDFPDKAVKFLNKE,soluble
6,MSKFAERLQTVANKPEVFQKFSRGLERESLRYTPEGALTQTPHPKALGAALTHRWITTDFAESLLEFITPVSHEVDTLLAQMSDIHHFAQTKLGDEKLWPLSMPCYVGSEEGIVLAQYGSSNTGKMKTLYREGLKRRYGSLMQIISGVHFNFSFPESFWDALFGEQEESARQASKSAAYFGVIRNYYRFGWLIPYLFGASPALCSSFLQGRKTDLPFESIGKTLYLPYATSLRLSDLGYTNSAQSVLQIGFNSIEQYLQGLNEAIRTPSAEFAKLGVKVEGEYRQLNSNVLQIENELYAPIRPKRVTQSGERPSQALARAGVEYIEVRSLDVNPFSPIGINEDQVRFLDLFLAWTALSDSDPMDGCELACWRDNWRKVVLEGRKPGLELQIGCHGEVLTLQAWAKRVFADLRVIAETMDAALGGDAYQAVCAKLETWIENPELTLSAQILAEIKQHGGLGKTGCALGNEYRAVNLQHQYQFYSQDEMEQEVRRSTQAQADIEAKETLNFDAYLTQYFAYLQAVS,not soluble

# Reference: the DeepSol protein solubility set
